Experimental data reported in patent US20150104443A1 (CHONG KUN DANG PHARMACEUTICAL, published 2015).

What was measured:
ErbB2 [1] = molecular target: T1, ErbB2 (UniProt P04626 23-652, limits assumed); assay: cell-based or functional assay
ErbB2 [2] = molecular target: T1, ErbB2; assay: BIAcore 2000 SPR, ErbB2 amine-coupled to the chip, antibody injected
ErbB2 [3] = molecular target: T1, ErbB2; assay: BIAcore 2000 SPR, ratio of KD values

Binder	inhibition of NCI-N87 cell proliferation (WST-8, 6 days), IC50 (ErbB2 [1]) [nM]	Kd (ErbB2 [2]) [nM]	koff (ErbB2 [2]) [s⁻¹]	kon (ErbB2 [2]) [M⁻¹ s⁻¹]	fold increase of affinity against the parent antibody 4D5 (ErbB2 [3]) [fold]
humanized antibody A091 (antibody, V domains shown, Expressed as a whole humanized antibody in CHO-s cells) VH: EVQLVESGGGLVQPGGSLRLSCAASGFNIKDTYIHWVRQARGKGLEWVARIYPTNGYTRYADSVKGRFTISADTSKNTAYLQMNSLRAEDTAVYYCSRWGGWGFYAFALWGQGTLVTVSS VL: DIQMTQSPSSLSASVGDRVTITCRASQDVNTAVAWYQQKPGKAPKLLIYTTTWPYSGVPSRFSGSRSGTDFSLTISSLQPEDFATYYCQQYYNTPVTFGQGTKVEIK	10.3	1.07	0.000688	644000	
humanized antibody A058 (antibody, V domains shown, Expressed as a whole humanized antibody in CHO-s cells) VH: EVQLVESGGGLVQPGGSLRLSCAASGFNIKDTYIHWVRQAPGKGLEWVARIYPTNGYTRYADSVKGRFTISADTSKNTAYLQMNSLRAEDTAVYYCSRWGGWGFYAFALWGQGTLVTVSS VL: DIQMTQSPSSLSASVGDRVTITCRASQDVNTAVAWYQQKPGKAPKLLIYSASFLYSGVPSRFSGSRSGTDFTLTISSLQPEDFATYYCQQHYQTPASFGQGTKVEIK	4.3	0.533	0.000278	522000	
humanized antibody AH16 (antibody, V domains shown, Expressed as a whole humanized antibody in CHO-s cells) VH: EVQLVESGGGLVQPGGSLRLSCAASGFNIKDTYIHWVRQAPGKGLEWVARIYPTNGYTRYADSVKGRFTISADTSKNTAYLQMNSLRAEDTAVYYCSRWNAKGFYSFVHWGQGTLVTVSS VL: not shown		0.297	0.00012	404000	~2
